{"source": "patent US20220236279A1", "about": "(LUXEMBOURG INSTITUTE OF HEALTH LIH, published 2022)", "binders": {"B1": {"name": "Cy-5-labelled LIH383 (peptide)", "peptide": "FGGFMRRK", "modifications": "also: Cy5 label, site not given here", "notes": "also called LIH383-Cy5; fluorescently labelled LIH383"}, "B2": {"name": "delta-type opioid receptor (DOR) (receptor, UniProt P41143 1-372, looked up)", "chain": "MEPAPSAGAELQPPLFANASDAYPSACPSAGANASGPPGARSASSLALAIAITALYSAVCAVGLLGNVLVMFGIVRYTKMKTATNIYIFNLALADALATSTLPFQSAKYLMETWPFGELLCKAVLSIDYYNMFTSIFTLTMMSVDRYIAVCHPVKALDFRTPAKAKLINICIWVLASGVGVPIMVMAVTRPRDGAVVCMLQFPSPSWYWDTVTKICVFLFAFVVPILIITVCYGLMLLRLRSVRLLSGSKEKDRSLRRITRMVLVVVGAFVVCWAPIHIFVIVWTLVDIDRRDPLVVAALHLCIALGYANSSLNPVLYAFLDENFKRCFRQLCRKPCGRPDPSSFSRAREATARERVTACTPSDGPGGGAAA", "notes": "whole, on cells; C-terminally SmBiT-tagged in the NanoBiT assays; also called OPRD; DOP"}}, "key": {"[1]": {"molecular_target": "T1, human atypical chemokine receptor 3 (ACKR3) (human, UniProt P25106 1-362)", "T1 construct": "whole, on cells; also called CXCR7", "T1 sequence (P25106 whole entry)": "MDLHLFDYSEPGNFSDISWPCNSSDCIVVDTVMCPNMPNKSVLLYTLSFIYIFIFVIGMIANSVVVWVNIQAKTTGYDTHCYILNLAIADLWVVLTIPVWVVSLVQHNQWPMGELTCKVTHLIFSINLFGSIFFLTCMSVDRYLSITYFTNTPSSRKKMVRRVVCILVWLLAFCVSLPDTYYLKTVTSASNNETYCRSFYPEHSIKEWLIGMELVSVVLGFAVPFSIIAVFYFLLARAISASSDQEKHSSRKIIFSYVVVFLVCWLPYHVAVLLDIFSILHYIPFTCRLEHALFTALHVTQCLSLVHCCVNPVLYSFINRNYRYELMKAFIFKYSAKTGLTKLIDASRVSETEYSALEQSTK", "assay": "flow cytometry competition with 5 nM CXCL12-AF647 on U87-ACKR3 cells", "excerpt": "Dead cells were excluded using Zombie Green viability dye (BioLegend). […] Ligand binding was quantified by mean fluorescence intensity on a BD FACS Fortessa cytometer (BD Biosciences)."}, "[2]": {"molecular_target": "T2, C-X-C motif chemokine receptor 4 (CXCR4) (UniProt P61073 1-352)", "T2 construct": "whole, on cells; Stably expressed in U87 cells (U87-CXCR4); C-terminally SmBiT-tagged in the NanoBiT assays", "T2 sequence (P61073 whole entry)": "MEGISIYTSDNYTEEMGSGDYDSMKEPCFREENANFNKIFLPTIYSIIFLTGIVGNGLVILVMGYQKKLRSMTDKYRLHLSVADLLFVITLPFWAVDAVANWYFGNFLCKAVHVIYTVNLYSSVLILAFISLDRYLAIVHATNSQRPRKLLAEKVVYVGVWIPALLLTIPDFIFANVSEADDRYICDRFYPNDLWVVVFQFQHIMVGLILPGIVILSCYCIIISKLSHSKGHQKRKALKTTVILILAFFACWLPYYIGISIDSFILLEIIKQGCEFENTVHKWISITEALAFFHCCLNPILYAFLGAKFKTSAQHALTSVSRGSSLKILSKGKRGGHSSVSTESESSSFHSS", "assay": "flow cytometry, labelled peptide on U87-CXCR4 cells"}, "[3]": {"molecular_target": "T1, human atypical chemokine receptor 3 …", "assay": "cell-based or functional assay"}, "[4]": {"molecular_target": "T3, human β-arrestin-1 N-terminally fused to LgBiT (human, UniProt P49407 1-418)", "T3 construct": "Co-expressed in U87 cells with SmBiT-tagged receptors; also called LgBiT-beta-arrestin-1; not shown: LgBiT (NanoBiT, Promega)", "T3 sequence (P49407 whole entry, the tested form may be a part)": "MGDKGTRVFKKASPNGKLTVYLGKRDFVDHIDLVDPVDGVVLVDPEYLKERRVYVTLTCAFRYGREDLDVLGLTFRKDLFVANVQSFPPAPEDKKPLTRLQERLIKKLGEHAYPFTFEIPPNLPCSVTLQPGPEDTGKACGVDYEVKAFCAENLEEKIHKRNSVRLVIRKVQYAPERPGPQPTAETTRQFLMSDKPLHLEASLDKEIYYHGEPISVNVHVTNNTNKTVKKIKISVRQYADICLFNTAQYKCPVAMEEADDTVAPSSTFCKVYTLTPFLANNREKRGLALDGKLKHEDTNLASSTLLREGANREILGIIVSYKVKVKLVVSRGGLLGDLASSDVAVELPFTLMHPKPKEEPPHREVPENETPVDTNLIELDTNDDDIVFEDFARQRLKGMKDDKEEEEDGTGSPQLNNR", "assay": "NanoBiT complementation in U87 cells (receptor-SmBiT, LgBiT-β-arrestin-1), induced by adrenorphin", "experimental": "48 hours post-transfection cells were harvested, incubated 25 minutes at 37° C. with Nano-Glo Live Cell substrate diluted 200-fold and distributed into white 96-well plates (5×10⁴ cells per well). Ligand-induced, β-arrestin and mG recruitment to GPCRs was evaluated with a Mithras LB940 luminometer (Berthold Technologies) for 20 minutes. For concentration-response curves, the signal recorded with a saturating concentration of full agonist for each receptor was set as 100%."}, "[5]": {"molecular_target": "kappa-type opioid receptor (KOR) (UniProt P41145 1-380)", "sequence (P41145 whole entry)": "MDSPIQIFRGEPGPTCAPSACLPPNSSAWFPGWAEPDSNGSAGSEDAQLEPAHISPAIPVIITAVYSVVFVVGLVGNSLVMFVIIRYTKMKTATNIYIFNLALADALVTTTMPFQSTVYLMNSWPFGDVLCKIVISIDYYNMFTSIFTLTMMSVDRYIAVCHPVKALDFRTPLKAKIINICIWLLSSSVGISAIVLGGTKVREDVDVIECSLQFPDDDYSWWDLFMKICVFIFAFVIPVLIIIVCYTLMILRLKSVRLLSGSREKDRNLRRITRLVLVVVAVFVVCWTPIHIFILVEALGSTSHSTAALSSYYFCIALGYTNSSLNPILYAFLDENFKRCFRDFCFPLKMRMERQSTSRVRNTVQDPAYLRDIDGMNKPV", "assay": "cell-based or functional assay"}, "[6]": {"molecular_target": "B2", "assay": "cell-based or functional assay"}, "[7]": {"molecular_target": "mu-type opioid receptor (MOR) (UniProt P35372 1-400)", "sequence (P35372 whole entry)": "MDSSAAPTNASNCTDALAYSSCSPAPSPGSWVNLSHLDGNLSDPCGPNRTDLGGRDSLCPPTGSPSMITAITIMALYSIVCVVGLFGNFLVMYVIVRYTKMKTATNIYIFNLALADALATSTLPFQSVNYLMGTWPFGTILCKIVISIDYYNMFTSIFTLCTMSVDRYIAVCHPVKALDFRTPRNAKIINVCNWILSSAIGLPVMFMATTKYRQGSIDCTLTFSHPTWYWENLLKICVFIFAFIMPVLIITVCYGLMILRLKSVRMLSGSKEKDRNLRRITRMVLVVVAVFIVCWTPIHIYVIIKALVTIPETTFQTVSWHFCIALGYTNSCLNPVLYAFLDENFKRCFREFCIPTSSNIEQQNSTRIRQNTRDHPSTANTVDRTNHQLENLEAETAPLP", "assay": "cell-based or functional assay"}}, "note": "No end group written: not given here."}
{"binder": "GGFLRRIRPKLKWDNQ", "note": "[dynorphin 2-17 (SEQ ID NO: 19)]", "values": [{"measurement": "binding result", "setting": "[1]", "value": "binds"}]}
{"binder": "B1", "values": [{"measurement": "binding result", "setting": "[2]", "value": "no binding"}]}
{"binder": "GGFLRRIRPKLK-NH2", "note": "[dynorphin 2-13 (SEQ ID NO: 20; NH2-substituted at C-terminus)]", "values": [{"measurement": "binding result", "setting": "[1]", "value": "binds"}]}
{"binder": "H-FGGFMRRK-NH2", "note": "[LIH383, octapeptide FGGFMRRK (SEQ ID NO: 3; NH2-substituted at C-terminus)]", "values": [{"measurement": "EC50, β-arrestin recruitment (NanoBiT)", "setting": "[3]", "value": 0.61, "unit": "nM"}]}
{"binder": "B2", "values": [{"measurement": "binding result", "setting": "[4]", "value": "binds"}]}
{"binder": "FGGFMRRV-NH2", "note": "[adrenorphin Y1F variant (SEQ ID NO: 35; NH2-substituted at C-terminus)]", "values": [{"measurement": "fold reduction of potency against WT adrenorphin, β-arrestin-1 recruitment", "setting": "[5]", "value": "> 100", "unit": "fold"}, {"measurement": "fold change of potency against WT adrenorphin, β-arrestin-1 recruitment", "setting": "[3]", "value": 10, "unit": "fold"}, {"measurement": "fold reduction of potency against WT adrenorphin, β-arrestin-1 recruitment", "setting": "[6]", "value": "> 100", "unit": "fold"}, {"measurement": "fold reduction of potency against WT adrenorphin, β-arrestin-1 recruitment", "setting": "[7]", "value": "> 100", "unit": "fold"}]}
